Publication PMC2756588
Where “and” joins values, the source holds several entries; their conditions need not be identical. Equal values may be shown once.

T1: Abp1, P15891
T1 sequence (P15891 535-592, looked up): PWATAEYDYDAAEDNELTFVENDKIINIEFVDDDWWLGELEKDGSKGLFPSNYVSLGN

T2: Bbc1, P47068
T2 sequence (P47068 1-78, looked up): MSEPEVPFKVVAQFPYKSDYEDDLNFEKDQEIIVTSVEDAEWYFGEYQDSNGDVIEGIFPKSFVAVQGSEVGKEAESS

T3: Boi1, P38041
T3 sequence (P38041 1-86, looked up): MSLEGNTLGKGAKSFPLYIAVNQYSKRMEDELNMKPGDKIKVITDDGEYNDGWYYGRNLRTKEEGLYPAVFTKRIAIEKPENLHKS

T4: Boi2, P39969
T4 sequence (P39969 32-116, looked up): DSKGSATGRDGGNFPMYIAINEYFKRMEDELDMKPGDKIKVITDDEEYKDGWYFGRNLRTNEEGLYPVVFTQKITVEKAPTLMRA

T5: Bud14, P27637
T5 sequence (P27637 247-328, looked up): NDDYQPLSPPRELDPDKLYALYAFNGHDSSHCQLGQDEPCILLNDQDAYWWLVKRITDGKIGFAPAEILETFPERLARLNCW

T6: Bzz1-2, P38822
T6 sequence (P38822 568-633, looked up): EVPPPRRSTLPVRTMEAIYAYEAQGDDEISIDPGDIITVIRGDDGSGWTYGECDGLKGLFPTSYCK

T7: Cdc25, P04821
T7 sequence (P04821 50-136, looked up): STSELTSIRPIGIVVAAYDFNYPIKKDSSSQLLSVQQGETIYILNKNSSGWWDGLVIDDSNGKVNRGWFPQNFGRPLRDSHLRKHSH

T8: Cyk3, Q07533
T8 sequence (Q07533 1-83, looked up): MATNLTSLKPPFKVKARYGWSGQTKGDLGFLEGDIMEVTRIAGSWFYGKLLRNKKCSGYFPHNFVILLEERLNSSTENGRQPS

T9: Fus1, P11710
T9 sequence (P11710 432-512, looked up): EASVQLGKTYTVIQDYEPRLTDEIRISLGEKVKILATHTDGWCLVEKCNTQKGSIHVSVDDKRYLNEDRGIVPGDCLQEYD

T10: Hof1, Q05080
T10 sequence (Q05080 590-669, looked up): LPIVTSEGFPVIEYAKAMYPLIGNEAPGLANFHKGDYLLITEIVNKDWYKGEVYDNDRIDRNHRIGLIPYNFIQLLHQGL

T11: Hse1, P38753
T11 sequence (P38753 208-285, looked up): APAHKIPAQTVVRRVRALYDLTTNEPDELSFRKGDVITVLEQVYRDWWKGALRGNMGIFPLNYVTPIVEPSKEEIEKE

T12: Lsb4, P32793
T12 sequence (P32793 402-468, looked up): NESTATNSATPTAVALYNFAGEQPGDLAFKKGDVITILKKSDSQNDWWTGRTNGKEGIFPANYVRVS

T13: Myo5, Q04439
T13 sequence (Q04439 1072-1160, looked up): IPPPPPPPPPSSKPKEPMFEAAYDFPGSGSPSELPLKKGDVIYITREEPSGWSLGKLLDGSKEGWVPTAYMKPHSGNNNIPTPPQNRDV

T14: Nbp2, Q12163
T14 sequence (Q12163 103-180, looked up): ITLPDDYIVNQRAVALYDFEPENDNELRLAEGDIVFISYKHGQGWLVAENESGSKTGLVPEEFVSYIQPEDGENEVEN

T15: Pex13, P80667
T15 sequence (P80667 295-386, looked up): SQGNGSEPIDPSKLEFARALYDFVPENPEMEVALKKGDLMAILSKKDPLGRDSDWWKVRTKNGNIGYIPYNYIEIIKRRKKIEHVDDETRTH

T16: Pin3, Q06449
T16 sequence (Q06449 53-122, looked up): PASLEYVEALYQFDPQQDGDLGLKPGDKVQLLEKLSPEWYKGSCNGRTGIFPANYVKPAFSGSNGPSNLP

T17: Sla1-2, P32790
T17 sequence (P32790 60-140, looked up): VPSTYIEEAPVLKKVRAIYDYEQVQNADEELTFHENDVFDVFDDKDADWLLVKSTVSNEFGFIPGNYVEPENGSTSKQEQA

T18: Sla1-3, P32790
T18 sequence (P32790 344-424, looked up): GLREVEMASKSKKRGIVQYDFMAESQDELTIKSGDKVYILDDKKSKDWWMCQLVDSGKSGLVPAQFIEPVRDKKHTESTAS

T19: Bzz1-1, P38822
T19 sequence (P38822 478-572, looked up): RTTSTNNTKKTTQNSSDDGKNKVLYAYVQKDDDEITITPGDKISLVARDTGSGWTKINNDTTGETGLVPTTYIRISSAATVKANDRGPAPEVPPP

T20: Lsb1, P53281
T20 sequence (P53281 45-122, looked up): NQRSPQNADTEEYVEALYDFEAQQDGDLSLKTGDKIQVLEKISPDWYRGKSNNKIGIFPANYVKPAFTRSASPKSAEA

T21: Lsb3, P43603
T21 sequence (P43603 385-451, looked up): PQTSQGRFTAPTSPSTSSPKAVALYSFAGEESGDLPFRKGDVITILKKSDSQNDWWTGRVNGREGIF


Legend:
Assay in all cases: SPOT array
Abp1, P15891 = target: T1, Abp1, P15891; settings: median of control spots 935
Bbc1, P47068 = target: T2, Bbc1, P47068; settings: median of control spots 796
Bem1-1, P29366 = settings: median of control spots 4282
Bem1-2, P29366 = settings: median of control spots 4347
Boi1, P38041 = target: T3, Boi1, P38041; settings: median of control spots 1162
Boi2, P39969 = target: T4, Boi2, P39969; settings: median of control spots 1161
Bud14, P27637 = target: T5, Bud14, P27637; settings: median of control spots 956
Bzz1-2, P38822 = target: T6, Bzz1-2, P38822; settings: median of control spots 4538
Cdc25, P04821 = target: T7, Cdc25, P04821; settings: median of control spots 969
Cyk3, Q07533 = target: T8, Cyk3, Q07533; settings: median of control spots 1451
Fus1, P11710 = target: T9, Fus1, P11710; settings: median of control spots 1200
Hof1, Q05080 = target: T10, Hof1, Q05080; settings: median of control spots 4086
Hse1, P38753 = target: T11, Hse1, P38753; settings: median of control spots 1727
Lsb4, P32793 = target: T12, Lsb4, P32793; settings: median of control spots 397
Myo3, P36006 = settings: median of control spots 468
Myo5, Q04439 = target: T13, Myo5, Q04439; settings: median of control spots 471
Nbp2, Q12163 = target: T14, Nbp2, Q12163; settings: median of control spots 357
Pex13, P80667 = target: T15, Pex13, P80667; settings: median of control spots 1341
Pin3, Q06449 = target: T16, Pin3, Q06449; settings: median of control spots 2171
Sho1, P40073 = settings: median of control spots 1148
Sla1-2, P32790 = target: T17, Sla1-2, P32790; settings: median of control spots 712
Sla1-3, P32790 = target: T18, Sla1-3, P32790; settings: median of control spots 5475
Bzz1-1, P38822 = target: T19, Bzz1-1, P38822; settings: median of control spots 4446
GST = settings: median of control spots 978
Lsb1, P53281 = target: T20, Lsb1, P53281; settings: median of control spots 388
Lsb3, P43603 = target: T21, Lsb3, P43603; settings: median of control spots 406
Rvs167, P39743 = settings: median of control spots 2707
Rvs167, P39743, sequence (P39743 419-482): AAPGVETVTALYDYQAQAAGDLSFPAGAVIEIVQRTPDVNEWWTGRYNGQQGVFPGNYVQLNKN

Sho1, P40073, sequence (P40073 287-367): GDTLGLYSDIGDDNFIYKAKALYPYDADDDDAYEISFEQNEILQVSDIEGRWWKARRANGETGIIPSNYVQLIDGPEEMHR
Bem1-1, P29366, sequence (P29366 55-141): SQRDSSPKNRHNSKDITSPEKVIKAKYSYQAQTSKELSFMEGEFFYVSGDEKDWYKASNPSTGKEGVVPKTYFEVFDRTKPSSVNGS
Bem1-2, P29366, sequence (P29366 139-227): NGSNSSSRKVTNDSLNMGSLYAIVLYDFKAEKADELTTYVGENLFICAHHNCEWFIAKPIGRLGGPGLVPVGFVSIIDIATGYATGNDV

| SPOT intensity (Abp1, P15891) | SPOT intensity (Bbc1, P47068) | SPOT intensity (Bem1-1, P29366) | SPOT intensity (Bem1-2, P29366) | SPOT intensity (Boi1, P38041) | SPOT intensity (Boi2, P39969) | SPOT intensity (Bud14, P27637) | SPOT intensity (Bzz1-2, P38822) | SPOT intensity (Cdc25, P04821) | SPOT intensity (Cyk3, Q07533) | SPOT intensity (Fus1, P11710) | SPOT intensity (Hof1, Q05080) | SPOT intensity (Hse1, P38753) | SPOT intensity (Lsb4, P32793) | SPOT intensity (Myo3, P36006) | SPOT intensity (Myo5, Q04439) | SPOT intensity (Pex13, P80667) | SPOT intensity (Pin3, Q06449) | SPOT intensity (Sho1, P40073) | SPOT intensity (Sla1-3, P32790) | Binder | further results |
| --- | --- | --- | --- | --- | --- | --- | --- | --- | --- | --- | --- | --- | --- | --- | --- | --- | --- | --- | --- | --- | --- |
| 49 and 31 | 25 and 23 | 823 and 2170 | 4830 and 2260 | 14 and 10 | 3 and 1 | 16 and 18 | 394 and 164 | 230 and 113 | 1 and 3 | 1870 and 1460 | 5560 and 3670 | 307 and 687 | 4 and 7 | 14 and 19 | 5 and 3 | 163 and 113 | 84 | 160 and 101 | 992 and 402 | RHLKNIPRIPIFSIL | SPOT intensity (Nbp2, Q12163): 184 and 63; SPOT intensity (Sla1-2, P32790): 0 |
| 19 | 11 | 0 | 0 | 0 | 0 | 0 | 0 | 2 | 0 | 0 | 5 | 9 | 907 | 99 | 11 | 365 | 58 | 0 | 1 | SSSSTPPTLPPRRIE | SPOT intensity (Bzz1-1, P38822): 0; SPOT intensity (GST): 0; SPOT intensity (Lsb1, P53281): 1360; SPOT intensity (Lsb3, P43603): 1090; SPOT intensity (Nbp2, Q12163): 0; SPOT intensity (Rvs167, P39743): 5650; SPOT intensity (Sla1-2, P32790): 1 |
| 216 and 273 | 223 and 226 | 1 and 3 |  | 8 and 4 |  | 6 |  | 55 and 39 | 2 and 1 |  |  |  | 206 and 92 | 8 and 6 |  | 3 and 1 | 5 and 3 | 267 and 126 | 9 and 7 | VSKLRSPNTPRRLRK | SPOT intensity (Bzz1-1, P38822): 0; SPOT intensity (GST): 3 and 1; SPOT intensity (Lsb3, P43603): 72 and 49; SPOT intensity (Nbp2, Q12163): 0; SPOT intensity (Sla1-2, P32790): 0 |
| 122 and 106 | 49 and 40 | 3190 and 3200 | 2910 and 3310 | 45 and 64 | 28 and 50 | 184 and 188 | 4030 and 3640 | 240 and 142 | 241 and 231 | 227 and 99 | 1550 and 3190 | 2790 and 3860 | 114 and 89 | 122 and 104 | 88 and 90 | 403 and 875 | 721 and 289 | 138 and 78 | 3540 and 3050 | SPAPIVPREPLRNEP | SPOT intensity (Bzz1-1, P38822): 3070 and 3750; SPOT intensity (GST): 1000 and 337; SPOT intensity (Lsb3, P43603): 46 and 25; SPOT intensity (Rvs167, P39743): 2590 and 3300 |
| 133 | 18 | 0 | 0 | 3 | 0 | 0 | 0 | 0 | 0 | 0 | 0 | 1 | 0 | 397 | 117 | 4 | 0 | 24 | 0 | LKPPIGRPPKFPKSP | SPOT intensity (Bzz1-1, P38822): 0; SPOT intensity (GST): 0; SPOT intensity (Lsb1, P53281): 0; SPOT intensity (Lsb3, P43603): 3; SPOT intensity (Nbp2, Q12163): 0; SPOT intensity (Rvs167, P39743): 0; SPOT intensity (Sla1-2, P32790): 0 |
| 6 | 0 | 0 | 0 | 0 | 0 | 0 | 0 | 0 | 0 | 0 | 1690 | 0 | 10 | 575 | 362 | 725 | 0 | 0 | 0 | GPPPPLPPPLFPSSS | SPOT intensity (Bzz1-1, P38822): 0; SPOT intensity (GST): 0; SPOT intensity (Lsb1, P53281): 64; SPOT intensity (Lsb3, P43603): 0; SPOT intensity (Nbp2, Q12163): 0; SPOT intensity (Rvs167, P39743): 0; SPOT intensity (Sla1-2, P32790): 0 |
| 124 | 29 | 1 | 0 | 0 | 0 | 0 | 0 | 0 | 2 | 0 | 186 | 3 | 960 | 102 | 35 | 329 | 280 | 21 | 0 | PLQSKIPMLPSRRTM | SPOT intensity (Bzz1-1, P38822): 0; SPOT intensity (GST): 0; SPOT intensity (Lsb1, P53281): 396; SPOT intensity (Lsb3, P43603): 635; SPOT intensity (Nbp2, Q12163): 12; SPOT intensity (Rvs167, P39743): 1570; SPOT intensity (Sla1-2, P32790): 14 |
